The target of one experiment is T1, EGFRvIII-peptide-OVA (Homo sapiens, UniProt P00533, DELINS30-297G).
T1 construct: purchased R&D Systems (custom synthesis); host or cells: synthetic peptide
Nature of the experiment: B-cell culture supernatant ELISA on EGFRvIII-peptide-OVA. The format is binding. As to conditions: Table 3.8. How it is done: B-cells from the above-discussed animals were harvested and cultured. Those secreting EGFRvIII-peptide specific antibodies were isolated as described in Babcook et al., Proc. Natl. Acad. Sci. USA, 93:7843-7848 (1996). ELISA was used to identify primary EGFRvIII-peptide-OVA-specific wells. About 5 million B-cells were cultured from XenoMouse animals in 245 96 well plates at 500 or 150 or 50 cells/well, and were screened on EGFRvIII-peptide-OVA to identify the antigen-specific wells.
On the technique in general: ELISA stands for enzyme-linked immunosorbent assay.

The target in the next experiment is T2, OVA (Gallus gallus, UniProt P01012).
T2 sequence (P01012 1-386): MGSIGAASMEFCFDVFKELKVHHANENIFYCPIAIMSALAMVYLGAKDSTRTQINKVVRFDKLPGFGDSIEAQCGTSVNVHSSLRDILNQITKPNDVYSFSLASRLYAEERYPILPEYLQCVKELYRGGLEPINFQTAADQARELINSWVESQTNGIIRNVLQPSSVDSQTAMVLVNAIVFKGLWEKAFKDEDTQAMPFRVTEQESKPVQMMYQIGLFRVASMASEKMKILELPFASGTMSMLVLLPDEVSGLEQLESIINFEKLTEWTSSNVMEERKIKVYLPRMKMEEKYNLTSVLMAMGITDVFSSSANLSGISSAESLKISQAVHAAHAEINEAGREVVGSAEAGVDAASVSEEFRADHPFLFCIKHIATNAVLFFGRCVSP
Nature of the experiment: B-cell culture supernatant control ELISA on OVA. The format is binding. As to conditions: Table 3.8. An excerpt: 244 of EGFRvIII-peptide-OVA-Elisa positive wells of OD>0.5 were screened again on EGFRvIII-peptide-OVA and on OVA to confirm that they were EGFRvIII-peptide specific.

For experiment [1], the target named is T3, native form of EGFRvIII stably expressed on NR6 cells (NR6 M cells) (Homo sapiens, UniProt P00533, DELINS30-297G).
T3 construct: expressed in transfected cells; host or cells: NR6 murine fibroblasts (NR6 M)
Nature of the experiment: Native cell binding assay by FMAT, NR6 M cells. The format is cell-based. As to conditions: total fluorescent intensity.

The target of experiment [2] is T4, NR6 Wt cells (NR6 cells expressing EGF receptor) (Homo sapiens, UniProt P00533).
T4 construct: expressed in transfected cells; host or cells: NR6 murine fibroblasts (NR6 Wt)
The experiment in a line: Native cell binding assay by FMAT, NR6 Wt cells. It is filed as cell-based. As to conditions: total fluorescent intensity.

Experiment [3] concerns the target T5, EGFRvIII receptor on NR6 M cells (Homo sapiens, UniProt P00533, DELINS30-297G).
T5 construct: expressed in transfected cells; host or cells: NR6 murine fibroblasts (NR6 M)
Nature of the experiment: Internalization assay of B-cell culture supernatants (FMAT, glutathione). The format is cell-based. How it is done: The top 60 native binding B cell culture supernatants were further assayed for their ability to internalize the receptor. NR6 M cells were seeded at 8000 cells/well into 96 well FMAT plates and incubated overnight. Media was removed and 10-15 μl B-Cell culture supernatant in a total volume of 30 μl media, in duplicate was added. Next, 15 μl of secondary antibody (SS Alexa 647 anti-human IgG Fab at 1.5 μg/ml final concentration) was added and the mixture was incubated on ice for 1 hr. An irrelevant B-Cell Culture supernatant was used to see the effect of the culture media. Human anti-EGFRvIII mAb 13.2.1 was used as a positive control starting at 1 μg/ml (final concentration) and negative control was PK 16.3.1 (human anti-KLH IgG2 antibody) at the same concentration. After incubation, the cells were washed with cold PBS, 50 μl media was added to all of the wells, one of the duplicates were incubated at 37° C. for 30 mins while the other duplicate remained on ice. After the incubations media was removed, 100 ul of cold 50 mM glutathione was added to the set incubated at 37° C. and 100 μl of cold media added to the other set, both sets were then left on ice for 1 hr. The cells were then washed with 100 μl cold PBS and then fixed with 1% paraformaldehyde and read in FMAT. The results were expressed as % intermalized, calculated as total fluorescence in the presence of glutathione/total fluorescence in the absence of glutathione X 100.

Results on one molecule are retold here after patent US20050059087A1, “Antibodies directed to the deletion mutants of epidermal growth factor receptor and uses thereof” (priority 2003, published 2005).

B1: 129A7: B-cell culture supernatant well (antibody, V domains shown)
VH: QVQLVESGGGVVQPGRSLRLSCAASGFTLSSYGMHWVRQAPGKGLEWVAVMSYDGSKEDYADSVKGRFTISRDNSENTLYLQMNSLRAEDTAVYYCVSEGYCSSRSCYKYYYYGMDVWGQGTTVTVSS
VL: DIVMTQSPLSLPVTPGEPASISCRSSQSLLYRNGNNYLDWYLQKPGQSPQLLIYLGSNRASGVPDRFSGSGSGTDFTLNISRVEAEDVGHYYCMQALQTPRTFGQGTKVEIK
On to B1, for which, in the experiment with EGFRvIII-peptide-OVA, the “1′ VIII-pep-OVA OD” value was 2.1501 and the “2′ VIII-pep-OVA OD” value is reported as 2.8208. Moreover, in the experiment with OVA, the “OVA OD” value is listed as 0.1515. In experiment [1], the “FMAT native binding to NR6 M cells” value is 84024. Also, the “FMAT native binding to NR6 Wt cells” value in experiment [2] came out at 0. Moreover, the “With glutathione FL1 × count” value in experiment [3] (37° C. for 30 mins, then 50 mM glutathione) came out at 8708. The “% internalized, (glut+/glut−) × 100” value in experiment [3] (NR6 M cells, 37° C. 30 mins) amounted to 31.5%. In addition, the “No glutathione FL1 × count” value in experiment [3] (set kept on ice, no glutathione) is on record as 27648.
